Assay results: article PMC12809092, “A bispecific antibody designed to act as a NRP2/PLXNA1 agonist mimics anticancer activity of SEMA3F” (The Journal of Biological Chemistry, 2025)

Tests used:
[1] = target: T1, PLXNA1-ECD, recombinant human plexinA1 full extracellular domains (Homo sapiens, UniProt Q9UIW2); test: BLI; Octet Red96e; Fab captured on streptavidin tips by biotinylated anti-LC-kappa-murine antibody; PLXNA1 ECD or LBD in solution at 1.85-1350 nM; global fit, 1:1 model; conditions: both partners purified
T1 construct: plexinA1, human, extracellular domains, aa 27-1244; the DNA encoded amino acids 1-1244 of NP_115618.3 (signal peptide removed on secretion); also called hPLXNA1 ECD; source: Expi293F, transfected, purified from culture media (HiTrap MabSelect column)

[2] = target: T2, PLXNA1-LBD, recombinant human plexinA1 ligand-binding domains (human, UniProt Q9UIW2); test: as above; conditions: both partners purified
T2 construct: the DNA encoded amino acids 1-710 of NP_115618.3 (signal peptide removed on secretion); The final cryo-EM model holds only the SEMA and PSI1 domains; also called hPLXNA1 LBD; source: Expi293F, transfected, purified from culture media (HiTrap MabSelect column)

[3] = target: the molecule itself; test: cryo-EM structure; purified complex of PLXNA1-LBD and aPLXNA1-19-43 Fab; 3.33 Å
[4] = target: T3, hNRP2_ECD, human neuropilin-2 extracellular domain (Homo sapiens, UniProt O60462); test: BLI; affinity of aNRP2 mAbs to hNRP2_ECD, shown as KD; as previously described; mean ± SEM of at least 3 experiments; conditions: both partners purified
T3 construct: neuropilin-2, human, extracellular domain
T3 sequence (O60462 21-864): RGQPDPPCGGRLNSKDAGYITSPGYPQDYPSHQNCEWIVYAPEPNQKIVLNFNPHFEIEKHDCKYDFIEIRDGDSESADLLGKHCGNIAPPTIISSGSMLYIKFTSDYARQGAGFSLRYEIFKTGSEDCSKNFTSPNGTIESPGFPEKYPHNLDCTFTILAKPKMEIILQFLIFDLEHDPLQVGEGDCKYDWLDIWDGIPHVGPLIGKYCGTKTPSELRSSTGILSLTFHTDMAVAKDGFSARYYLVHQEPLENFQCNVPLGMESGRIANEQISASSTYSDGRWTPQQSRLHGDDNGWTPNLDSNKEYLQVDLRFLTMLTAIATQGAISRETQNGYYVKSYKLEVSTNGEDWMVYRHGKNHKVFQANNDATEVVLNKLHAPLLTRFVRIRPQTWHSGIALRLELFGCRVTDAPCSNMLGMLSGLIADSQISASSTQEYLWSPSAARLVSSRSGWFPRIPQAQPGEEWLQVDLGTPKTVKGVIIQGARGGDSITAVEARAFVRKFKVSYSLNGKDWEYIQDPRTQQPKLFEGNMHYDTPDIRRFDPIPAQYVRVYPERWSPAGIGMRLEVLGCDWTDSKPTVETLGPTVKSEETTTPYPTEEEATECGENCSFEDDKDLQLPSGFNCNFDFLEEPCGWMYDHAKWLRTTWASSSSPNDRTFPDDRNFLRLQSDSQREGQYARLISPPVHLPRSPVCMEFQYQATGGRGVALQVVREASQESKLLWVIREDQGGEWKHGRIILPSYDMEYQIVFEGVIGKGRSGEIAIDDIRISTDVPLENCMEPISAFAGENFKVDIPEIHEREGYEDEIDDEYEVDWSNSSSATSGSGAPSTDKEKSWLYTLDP

B1: aPLXNA1-19-43 Fab (Fab, V domains shown)
VH: EVQLQQSGPELVKPGASVKISCKASGYKFTENYMDWVKQSHGESLEWIGDISPDNGDTSYNQKFRDKATLTVDKSSSTAYMELRSLTSEDSAVYYCAQIIYYDYVGYALDYWGQGTSVTVSS
VL: QIVLTQSPAILSASPGEKVTMSCSVSSSITYMHWYQQKPGTSPKRWIYDTSKLASGVPARFSGSGSGTSFSLTISNMEAEDAATYYCHQRSSYPYSFGGGTKLEIK
notes: VH of aPLXNA1-19-43; also in the deposited structure; constant part of the Fab heavy chain, mouse IgG1 backbone; VL (kappa) of aPLXNA1-19-43; mouse kappa light chain constant region (Fab captured by an anti-LC-kappa-murine antibody); Fab of the mAb aPLXNA1-19-43, the anti-PLXNA1 half of m6; also called aPLXNA1 Fab 19 to 43; aPLXNA1 Fab-P1943; source: Expi293F, transfected, purified from culture …
B1 gave a Kd [1] of 2.37 ± 0.78 nM and a Kd [2] of 5.99 ± 1.14 nM.

B2: PLXNA1-LBD, recombinant human plexinA1 ligand-binding domains (domain or fragment, UniProt Q9UIW2 27-710, looked up)
chain: EAGLPRAGGGSQPPFRTFSASDWGLTHLVVHEQTGEVYVGAVNRIYKLSGNLTLLRAHVTGPVEDNEKCYPPPSVQSCPHGLGSTDNVNKLLLLDYAANRLLACGSASQGICQFLRLDDLFKLGEPHHRKEHYLSSVQEAGSMAGVLIAGPPGQGQAKLFVGTPIDGKSEYFPTLSSRRLMANEEDADMFGFVYQDEFVSSQLKIPSDTLSKFPAFDIYYVYSFRSEQFVYYLTLQLDTQLTSPDAAGEHFFTSKIVRLCVDDPKFYSYVEFPIGCEQAGVEYRLVQDAYLSRPGRALAHQLGLAEDEDVLFTVFAQGQKNRVKPPKESALCLFTLRAIKEKIKERIQSCYRGEGKLSLPWLLNKELGCINSPLQIDDDFCGQDFNQPLGGTVTIEGTPLFVDKDDGLTAVAAYDYRGRTVVFAGTRSGRIRKILVDLSNPGGRPALAYESVVAQEGSPILRDLVLSPNHQYLYAMTEKQVTRVPVESCVQYTSCELCLGSRDPHCGWCVLHSICSRRDACERADEPQRFAADLLQCVQLTVQPRNVSVTMSQVPLVLQAWNVPDLSAGVNCSFEDFTESESVLEDGRIHCRSPSAREVAPITRGQGDQRVVKLYLKSKETGKKFASVDFVFYNCSVHQSCLSCVNGSFPCHWCKYRHVCTHNVADCAFLEGRVNVSEDCPQIL
notes: the DNA encoded amino acids 1-710 of NP_115618.3 (signal peptide removed on secretion); The final cryo-EM model holds only the SEMA and PSI1 domains; also called hPLXNA1 LBD; source: Expi293F, transfected, purified from culture media (HiTrap MabSelect column)
B2 was tested, and the “stoichiometry N” value [3] was 2.

B3: aNRP2-b2cL, anti-NRP2 mAb (antibody, V domains shown)
VH: QVRLQQPGAELVMPGASVKLSCKASGYTFTSYWMHWVKQRPGQGLEWIGVIHPNSASTFYNERFKTKATLTVDRSSSTAYMQLSSLTSEDSAVYYCSRPGTVRRSDYWGQGTTLTVSS
VL: DVLMTQSPLSLSVSLGDQASISCRSSQNIVHSTGNTYLEWYLQKPGQSPKLLIYKVSNRFSGVPDRFSGSGSGTDFTLKISRVEAEDLGVYYCFQGSHVPWTFGGGTKLEIK
notes: also called Nb2cL
Work on B3 yielded a Kd [4] of 0.33 nM.
